For this assay, the target named is FGFR1 (UniProt P16092). Nature of the assay: co-IP, Nf2-Flag mutants with FGFR1-HA. The following applies: reference: wild-type Nf2.

For the substance “Nf2 (Merlin) (from UniProt P46662) S518A”, under “sites S518”, the “binding against the reference” value was “lost”. As to “Nf2 (Merlin) (from UniProt P46662) S315A”, the “binding against the reference” value (sites S315) is on record as “lost”.

For the origin of these results see article PMC12487865.
